Target: human CD40 on cells (human) (UniProt P25942)
Test: cell-based or functional assay

Sequence of human CD40 on cells (human) (P25942 21-277 limits assumed): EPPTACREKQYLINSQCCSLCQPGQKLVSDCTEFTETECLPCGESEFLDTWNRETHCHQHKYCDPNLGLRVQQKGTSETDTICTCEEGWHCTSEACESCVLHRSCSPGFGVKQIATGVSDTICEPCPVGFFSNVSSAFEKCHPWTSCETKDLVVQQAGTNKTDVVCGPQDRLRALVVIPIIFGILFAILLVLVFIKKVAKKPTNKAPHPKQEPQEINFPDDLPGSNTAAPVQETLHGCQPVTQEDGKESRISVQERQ

Monocyte activation (THP1-Xblue, OD655): 0.12 OD655
moDC activation (IL-12p70, pg/mL): 139 pg/mL
Substance: literature CD40 antibody G28-5

From patent US20210277137A1
